In US20230365679A1 (KUNMING SINOWAY NATURAL PHARMACEUTICALS, published 2023):

Experiments:
[1] = biological target: CD22 on the cell membrane of CD22-positive cell lines (Raji, REH, CA46) (UniProt P20273); assay: FACS on Raji cells
[2] = biological target: CD22 on the cell membrane of CD22-positive cell lines (Raji, REH, CA46) (UniProt P20273); assay: FACS on REH cells; ambiguous fit, Top printed as (very wide)
[3] = biological target: CD22 on the cell membrane of CD22-positive cell lines (Raji, REH, CA46) (UniProt P20273); assay: FACS on CA46 cells; ambiguous fit, Top printed as (very wide)
[4] = biological target: Biotinylated Human Siglec-2/CD22 Protein, Fc, Avitag (ACROBiosystems, SI2-H82F8) (human) (UniProt P20273); assay: ELISA, plate coated with CD22-Fc antigen; fit of a non-binding control (R2 0.1733), not meaningful
[5] = biological target: T1, CD22 on the cell membrane of CD22-positive cell lines (Raji, REH, CA46) (UniProt P20273 20-847, limits assumed); assay: FACS on REH cells
T1 construct: whole, on cells; Raji and CA46: relatively high expression of CD22; REH: relatively medium expression; also called CD22 on cell membrane
Procedure: (§1) Raji cells (having a relatively high expression of CD22), CA46 cells (having a relatively high expression of CD22), and REH cells (having a relatively medium expression of CD22) were selected, and the cell binding ability of the antibodies was evaluated by curves of mean fluorescence intensity versus concentration obtained through FACS.

[6] = biological target: T1, CD22 on the cell membrane of …; assay: FACS on Raji cells
Procedure: as §1

[7] = biological target: T1, CD22 on the cell membrane of …; assay: FACS on CA46 cells
Procedure: as §1

[8] = biological target: T2, Biotinylated Human Siglec-2/CD22 Protein, Fc, Avitag (ACROBiosystems, SI2-H82F8) (human, UniProt P20273 20-687, biotinylated (Avitag)); assay: ELISA, plate coated with CD22-Fc antigen, anti-human Fd-HRP
T2 construct: Bought reagent; also called CD22 antigen; CD22-Fc-biotinylated antigen; not shown: Fc tag of the bought protein; Avitag
Procedure: ELISA plates were coated with 200 ng/mL CD22 antigen (Biotinylated Human Siglec-2/CD22 Protein, Fc, Avitag™, ACROBiosystems (ARCO)) at 100 μl per well, at 4° C. overnight. Next day, the plates were washed with PBST, then blocked by the added blocking buffer (PBST+3% milk) at 37° C. for 1-2 hours, and then washed again with PBST.
After incubation, the plates were washed with PBST. 100 μl of 1:10000 diluted secondary antibody (Mouse anti-human IgG Fd secondary antibody, HRP; REF: SA5-10190, Invitrogen, USA) was added to each well of the ELISA plates which were then incubated at 37° C. for 1 hour. Thereafter, the plates were washed with PBST.
100 μl of TMB solution (TMB Single-Component Substrate solution, Cat #PR1200, Beijing Solarbio Science & Technology Co., Ltd.) was added to each well of the plates which were then incubated at room temperature for 15 minutes. Then 50 μl of stop buffer (ELISA stop buffer (10×), Cat #C1058, Beijing Solarbio Science & Technology Co., Ltd.) was added thereto, and the plates were shaken. Absorbance values at 450 nm were detected.

[9] = biological target: T2, Biotinylated Human Siglec-2/CD22 …; assay: SPR (Biacore 8K), CD22-Fc-biotin on SA chip, antibody as analyte, 1:1 binding model
Procedure: Following reagents and materials were mainly used: [0066] Antigen to be immobilized: CD22-Fc-biotinylated antigen: ACROBiosystems (ARCO)) SI2-H82F8; [0067] Antibodies to be tested: Anti-CD22 mAbs; [0068] Chip SA; [0069] Immobilization buffer: (1) 1 M NaCl/50 mM NaOH; [0070] (2) 1 M NaCl/50 mM NaOH/50% isopropanol; [0071] Running buffer: 1×HBS-EP buffer; [0072] Regeneration buffer: Glycine, pH 1.5.
Experimental steps were as follows: [0074] 1) A sensor chip SA was taken and its surface was cleaned with ultrapure water; and after dried under nitrogen, was inserted into the slot. The immobilization buffers (1) and (2) were added to the columns A1 and A2 in a 96 well plate, and 3.85 nM CD22-Fc-biotinylated antigen were added at 200 μL per well into corresponding wells in column A3, respectively. The program was set to immobilize the antigen, and the immobilization was stopped when delta RU of about 70 RU was achieved. [0075] 2) Program “binding test” was set, including association time of 250 s and dissociation time of 600 s, and a test was performed using HA22 mAb, a dissociation degree of 4-5% was shown. [0076] 3) The HA22 mAb was diluted to 1000 nM and subsequently to 100 nM, and further 2-fold diluted starting from 100 nM for 8 times, at a final volume of about 250 μL per well. The program was set up to detect the binding capacity of that antibody No. 1 to the antigen, with association time of 250 s and dissociation time of 600 s. […] [0077] 4) All the antibodies, i.e., mAb-1 to mAb-6, were diluted to 1000 nM and subsequently to 100 nM, and further 2-fold diluted starting from 100 nM for 8 times, at a final volume of about 250 μL per well. The same program as that in step 3 was set up to detect affinity in batches. Results were analyzed using Biacore 8K evaluation.

[10] = biological target: T1, CD22 on the cell membrane of …; assay: FACS on CA46 cells; ambiguous fit, Top printed as (very wide)
Procedure: as §1

## Isotype control (antibody)
[1]
  EC50: 32.6 µg/mL
[2]
  EC50: 8250 µg/mL
[3]
  EC50: 4590 µg/mL
[4]
  EC50: 0.000154 µg/mL

B1: HA22 mAb (antibody, human IgG1, kappa, V domains shown)
VH: EVQLVESGGGLVKPGGSLKLSCAASGFAFSIYDMSWVRQTPEKCLEWVAYISSGGGTTYYPDTVKGRFTISRDNAKNTLYLQMSSLKSEDTAMYYCARHSGYGTHWGVLFAYWGQGTLVTVSA
VL: DIQMTQTTSSLSASLGDRVTISCRASQDISNYLNWYQQKPDGTVKLLIYYTSILHSGVPSRFSGSGSGTDYSLTISNLEQEDFATYFCQQGNTLPWTFGCGTKLEIKR
notes: also called positive antibody HA22 mAb
[5]
  EC50: 0.172 µg/mL
[6]
  EC50: 0.152 µg/mL
[7]
  EC50: 0.221 µg/mL
[8]
  EC50: 0.0203 µg/mL
[9]
  Kd: 0.242 nM
  koff: 8.93e-05 s⁻¹
  kon: 370000 M⁻¹ s⁻¹

B2: mAb-1 (antibody, human IgG1, kappa, V domains shown)
VH: EVQLVESGGGLVKPGGSLRLSCAASGFAFSIYDMSWVRQTPEKCLEWVAYISSGGGTTYYPDSVKGRFTISRENAKNSLYLQMNSLKSEDTAMYYCARHSGYGTHWGVLFAYWGQGTMVTVSS
VL: DIQMTQTTSSLSASLGDRVTISCRASQDISNYLNWYQQKPDGTVKLLIYYTSILHSGVPSRFSGSGSGTDYSLTISNLEQEDFATYFCQQGNTLPWTFGCGTKLEIKR
notes: Reconstructed IgG1/kappa antibody, humanized heavy chain with HA22 light chain; also called V2 HC + HA22 LC
[5]
  EC50: 0.812 µg/mL
[6]
  EC50: 0.152 µg/mL
[7]
  EC50: 0.521 µg/mL
[8]
  EC50: 0.0154 µg/mL
[9]
  Kd: 0.604 nM
  koff: 0.000262 s⁻¹
  kon: 434000 M⁻¹ s⁻¹

B3: mAb-3 (antibody, human IgG1, kappa, V domains shown)
VH: EVQLVESGGGLVKPGGSLRLSCAASGFAFSIYDMSWVRQAPGKCLEWVAYISSGGGTTYYPDSVKGRFTISRENAKNSLYLQMNSLKSEDTAMYYCARHSGYGTHWGVLFAYWGQGTMVTVSS
VL: DIQMTQSTSTLSASVGDRVTITCRASQDISNYLNWYQQRPDGSVKLLIYYTSILHSGVPSRFSGSGSGTDYTLTISSLQDEDFATYFCQQGNTLPWTFGCGTKVEIKR
notes: Humanized IgG1/kappa antibody; also called V1 HC + V2 LC
[7]
  EC50: 1.61 µg/mL
[8]
  EC50: 0.0139 µg/mL
[9]
  Kd: 0.713 nM
  koff: 0.000404 s⁻¹
  kon: 567000 M⁻¹ s⁻¹

B4: mAb-4 (antibody, human IgG1, kappa, V domains shown)
VH: EVQLVESGGGLVKPGGSLRLSCAASGFAFSIYDMSWVRQAPGKCLEWVAYISSGGGTTYYPDSVKGRFTISRENAKNSLYLQMNSLKSEDTAMYYCARHSGYGTHWGVLFAYWGQGTMVTVSS
VL: DIQMTQSPSTLSASVGDRVTITCRASQDISNYLNWFQQRPGQSPRLLIYYTSILHSGVPSRFSGSGSGTDYTLTISSLQPEDFATYYCQQGNTLPWTFGCGTKVEIKR
notes: Humanized IgG1/kappa antibody; also called V1 HC + V4 LC
[6]
  EC50: 0.206 µg/mL
[7]
  EC50: 0.152 µg/mL
[8]
  EC50: 0.0139 µg/mL
[9]
  Kd: 0.145 nM
  koff: 9.91e-05 s⁻¹
  kon: 685000 M⁻¹ s⁻¹

B5: mAb-2 (antibody, human IgG1, kappa, V domains shown)
VH: EVQLVESGGGLVKPGGSLRLSCAASGFAFSIYDMSWVRQTPEKCLEWVAYISSGGGTTYYPDSVKGRFTISRENAKNSLYLQMNSLKSEDTAMYYCARHSGYGTHWGVLFAYWGQGTMVTVSS
VL: DIQMTQSTSTLSASVGDRVTITCRASQDISNYLNWYQQRPDGSVKLLIYYTSILHSGVPSRFSGSGSGTDYTLTISSLQDEDFATYFCQQGNTLPWTFGCGTKVEIKR
notes: Humanized IgG1/kappa antibody; also called V2 HC + V2 LC
[6]
  EC50: 0.276 µg/mL
[7]
  EC50: 0.23 µg/mL
[8]
  EC50: 0.00906 µg/mL
[9]
  Kd: 0.47 nM
  koff: 0.000177 s⁻¹
  kon: 376000 M⁻¹ s⁻¹

B6: mAb-5 (antibody, human IgG1, kappa, V domains shown)
VH: EVQLVESGGGLVKPGGSLRLSCAASGFAFSIYDMSWIRQAPGKCLEWVAYISSGGGTTYYPGSVKGRFTISRENAKNSLYLQMNSLRSEDTAVYYCARHSGYGTHWGVLFAYWGQGTMVTVSS
VL: DIQMTQSPSTLSASVGDRVTITCRASQDISNYLNWFQQRPGQSPRLLIYYTSILHSGVPSRFSGSGSGTDYTLTISSLQPEDFATYYCQQGNTLPWTFGCGTKVEIKR
notes: Humanized IgG1/kappa antibody; also called V5 HC + V4 LC
[8]
  EC50: 0.0163 µg/mL
[10]
  EC50: ~20200 µg/mL
[9]
  Kd: 0.382 nM
  koff: 0.000411 s⁻¹
  kon: 1.08e+06 M⁻¹ s⁻¹

B7: mAb-6 (antibody, human IgG1, kappa, V domains shown)
VH: EVQLVESGGGLVKPGGSLRLSCAASGFAFSIYDMSWIRQAPGKCLEWVAYISSGGGTTYYPGSVKGRFTISRENAKNSLYLQMNSLRAGDTAVYYCARHSGYGTHWGVLFAYWGQGTMVTVSS
VL: DIQMTQSPSTLSASVGDRVTITCRASQDISNYLNWFQQRPGQSPRLLIYYTSILHSGVPSRFSGSGSGTDYTLTISSLQPEDFATYYCQQGNTLPWTFGCGTKVEIKR
notes: Humanized IgG1/kappa antibody; also called V4 HC + V4 LC
[7]
  EC50: 2.75 µg/mL
[8]
  EC50: 0.0104 µg/mL
[9]
  Kd: 0.315 nM
  koff: 0.00022 s⁻¹
  kon: 699000 M⁻¹ s⁻¹
